Experimental data as given in patent publication US20240270821A1, “GIP/GLP1/GCG TRI-RECEPTOR AGONISTS AND USES THEREOF” (priority 2023, published 2024).

Legend:
Assay in all cases: cell-based or functional assay
[1] = target: human glucagon receptor (human) (UniProt P47871)
[2] = target: T1, human GIP receptor (human) (UniProt P48546)
T1 sequence (looked up): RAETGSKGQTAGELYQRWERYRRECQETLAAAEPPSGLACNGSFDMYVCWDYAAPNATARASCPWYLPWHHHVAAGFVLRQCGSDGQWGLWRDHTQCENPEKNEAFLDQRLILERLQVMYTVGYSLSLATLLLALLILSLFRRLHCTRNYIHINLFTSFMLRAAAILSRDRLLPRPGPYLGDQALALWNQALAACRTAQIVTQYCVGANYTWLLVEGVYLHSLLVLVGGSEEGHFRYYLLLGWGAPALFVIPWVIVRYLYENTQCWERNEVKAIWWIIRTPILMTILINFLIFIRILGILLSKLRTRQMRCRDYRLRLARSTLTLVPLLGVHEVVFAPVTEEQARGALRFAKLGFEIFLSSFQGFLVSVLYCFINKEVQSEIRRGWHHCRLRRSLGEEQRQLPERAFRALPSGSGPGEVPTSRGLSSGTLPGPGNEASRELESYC

hGLP-1R = hGLP-1R (Homo sapiens, UniProt P43220)
hGLP-1R, sequence (P43220 24-463): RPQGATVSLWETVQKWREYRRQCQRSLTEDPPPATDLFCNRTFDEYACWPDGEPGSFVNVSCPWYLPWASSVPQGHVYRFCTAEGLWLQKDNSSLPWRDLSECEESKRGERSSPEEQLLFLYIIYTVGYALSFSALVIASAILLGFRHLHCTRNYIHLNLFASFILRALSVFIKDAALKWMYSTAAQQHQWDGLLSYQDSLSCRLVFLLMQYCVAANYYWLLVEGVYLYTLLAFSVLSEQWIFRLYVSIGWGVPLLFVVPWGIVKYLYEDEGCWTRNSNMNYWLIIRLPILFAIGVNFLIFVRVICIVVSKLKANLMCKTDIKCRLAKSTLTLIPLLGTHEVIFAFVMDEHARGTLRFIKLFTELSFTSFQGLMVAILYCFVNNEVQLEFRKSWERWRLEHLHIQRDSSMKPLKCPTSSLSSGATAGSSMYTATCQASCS

human glucagon receptor (human), sequence (P47871 26-477): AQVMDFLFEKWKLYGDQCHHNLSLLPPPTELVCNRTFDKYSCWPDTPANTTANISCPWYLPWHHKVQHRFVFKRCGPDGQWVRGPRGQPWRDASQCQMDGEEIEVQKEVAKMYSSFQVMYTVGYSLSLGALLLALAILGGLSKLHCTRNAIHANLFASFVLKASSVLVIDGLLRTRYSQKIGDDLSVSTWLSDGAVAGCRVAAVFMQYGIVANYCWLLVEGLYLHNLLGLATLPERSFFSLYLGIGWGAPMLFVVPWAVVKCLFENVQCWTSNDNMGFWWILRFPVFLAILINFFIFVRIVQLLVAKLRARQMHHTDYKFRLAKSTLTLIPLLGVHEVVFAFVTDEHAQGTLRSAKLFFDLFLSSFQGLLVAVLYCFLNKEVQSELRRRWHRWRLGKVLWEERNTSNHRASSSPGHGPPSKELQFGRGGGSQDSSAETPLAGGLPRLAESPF

Binder	Relative cAMP EC50 [1] [nM]	cAMP Rel EC50, nM (in the presence of 1% HSA) [1] [nM]	Relative cAMP EC50 [2] [nM]	cAMP Rel EC50, nM (in the presence of 1% HSA) [2] [nM]	Relative cAMP EC50 (hGLP-1R) [nM]	cAMP Rel EC50, nM (in the presence of 1% HSA) (hGLP-1R) [nM]	cAMP Rel EC50 (1% HSA) [1] [nM]	cAMP Rel EC50 (1% HSA) [2] [nM]	cAMP Rel EC50 (1% HSA) (hGLP-1R) [nM]
YXQGTFTSDFSXXLDKKAQXAFIEYLLAGGTSSGEPPPSGE (synthetic construct; SITE 2: note = 2-Aminoisobutyric Acid; SITE 12: note = L-ornithine; SITE 13: note = alpha-methyl-leucine; SITE 17: note = Lysine is chemically modified through conjugation of the epsilon-amino group of the Lysine side chain with (2-[2-(2-Amino-ethoxy)-ethoxy]-acetyl)-(gamma-Glu)) [Example 106]	6.26	2000	0.345	91	3.94	977	–	–	–
YXQGTFTSDXXQXLDXKAQXQFIQXLIAGGPSSGEPPPSGGGE (not fully specified; non-natural residues; C18 diacid-γGlu-e on Lys; C-terminal amide; synthetic construct; SITE 2: note = 2-Aminoisobutyric Acid; SITE 10: note = 3-(4-Pyridyl)-L-alanine; SITE 11: note = alpha-methyl-L-serine; SITE 13: note = alpha-methyl-leucine; SITE 16: note = L-ornithine; SITE 17: note = Lysine is chemically modified through conjugation of the epsilon-amino group) [Example 1133]	2.95	–	0.0719	–	0.768	–	216	4.24	47.8
YXQGTFTSDXXQXLDXKAQXQFIQXLIEXGPSSGAPPPSGGGE (not fully specified; synthetic construct; SITE 2: note = 2-Aminoisobutyric Acid; SITE 10: note = 3-(4-Pyridyl)-L-alanine; SITE 11: note = alpha-methyl-L-serine; SITE 13: note = alpha-methyl-leucine; SITE 16: note = L-ornithine; SITE 17: note = Lysine is chemically modified through conjugation of the epsilon-amino group) [Example 1137]	14.2	–	0.0334	–	0.582	–	663	2.05	36.2
YXQGTFTSDXSQXLDXKAQXAFIEXLIAXGPSSGEPPPSGSEE (Non-natural residues; K acylated AEEA-γGlu-C18 diacid; C-terminal amide; synthetic construct; SITE 2: note = 2-Aminoisobutyric Acid; SITE 10: note = 3-(4-Pyridyl)-L-alanine; SITE 13: note = alpha-methyl-leucine; SITE 16: note = L-ornithine; SITE 17: note = Lysine is chemically modified through conjugation of the epsilon-amino group of the Lysine side chain with (2-[2-(2-) [Example 1099]	3.47	–	0.076	–	0.73	–	472	8.64	75.8
YXQGTFTSDXSQXLDXKAQXAFIEYLIQXGPSSGEPPPSGSEE (not fully specified; non-natural residues, γGlu-C18 diacid acyl on K, C-terminal amide; synthetic construct; SITE 2: note = 2-Aminoisobutyric Acid; SITE 10: note = 3-(4-Pyridyl)-L-alanine; SITE 13: note = alpha-methyl-leucine; SITE 16: note = L-ornithine; SITE 17: note = Lysine is chemically modified through conjugation of the epsilon-amino group of the Lysine side chain with D-Glutami) [Example 1102]	4.37	–	0.0418	–	2.18	–	516	5.12	295
YXQGTFTSDXSQXLDXKAQXAFIEXLIEXGPSSGEPPPSGSEE (not fully specified; Aib, 4Pal, Orn, Me4Pal, αMeY; lipidated Lys; C-terminal amide; synthetic construct; SITE 2: note = 2-Aminoisobutyric Acid; SITE 10: note = 3-(4-Pyridyl)-L-alanine; SITE 13: note = alpha-methyl-leucine; SITE 16: note = L-ornithine; SITE 17: note = Lysine is chemically modified through conjugation of the epsilon-amino group of the Lysine side chain with D-Glutami) [Example 1103]	11.1	–	0.0723	–	1.06	–	1350	19.5	183
